The results in this text go back to publication PMC2951910, “Signal Transduction Protein Array Analysis Links LRRK2 to Ste20 Kinases and PKC Zeta That Modulate Neuronal Plasticity” (PLoS ONE, 2010).

For experiment [1], the target named is T1, GST-tagged LRRK2(G2019S) (amino acids 970-2527) (human, UniProt Q5S007 970-2527, G2019S, autophosphorylated (10 uM cold ATP, 1 h, 30 C) before the binding arrays; sites not stated).
T1 construct: leucine-rich repeat kinase 2 (LRRK2), human, amino acids 970-2527, with the Parkinson's disease-linked mutation G2019S; In the 33P arrays the kinase was not autophosphorylated beforehand, but ATP was present during the incubation; also called recombinant LRRK2(G2019S); leucine-rich repeat kinase 2; source: bought: Invitrogen; not shown: GST, N-terminal, kept
Description: peptide or protein array; BCCP-tagged full-length human proteins held on streptavidin-coated slides; overlaid with autophosphorylated GST-LRRK2(G2019S) (970-2527) or recombinant GST with cold ATP for 1 h at 30 C; washed in buffer with 0.5% SDS; detected with an Alexa 488-conjugated anti-GST antibody. Conditions: both partners purified.

The target in experiment [2] is T2, kinase-inactive GST-tagged LRRK2(D1994A) (970-2527) (human, UniProt Q5S007 970-2527, D1994A).
T2 construct: also called kinase-dead LRRK2(D1994A); source: bought: Invitrogen
Description: peptide or protein array; BCCP-tagged full-length human proteins held on streptavidin-coated slides, pre-incubated with 100 uM cold ATP; overlaid with 130 nM GST-LRRK2 (G2019S or D1994A) with 10 uM ATP and [gamma-33P]ATP for 1 h at 30 C; washed in 0.5% SDS; radioactive signal on the spots read on phosphoscreens; buffer only as control. The note with it: both partners purified.

T1 sequence (Q5S007 970-2527 G2019S): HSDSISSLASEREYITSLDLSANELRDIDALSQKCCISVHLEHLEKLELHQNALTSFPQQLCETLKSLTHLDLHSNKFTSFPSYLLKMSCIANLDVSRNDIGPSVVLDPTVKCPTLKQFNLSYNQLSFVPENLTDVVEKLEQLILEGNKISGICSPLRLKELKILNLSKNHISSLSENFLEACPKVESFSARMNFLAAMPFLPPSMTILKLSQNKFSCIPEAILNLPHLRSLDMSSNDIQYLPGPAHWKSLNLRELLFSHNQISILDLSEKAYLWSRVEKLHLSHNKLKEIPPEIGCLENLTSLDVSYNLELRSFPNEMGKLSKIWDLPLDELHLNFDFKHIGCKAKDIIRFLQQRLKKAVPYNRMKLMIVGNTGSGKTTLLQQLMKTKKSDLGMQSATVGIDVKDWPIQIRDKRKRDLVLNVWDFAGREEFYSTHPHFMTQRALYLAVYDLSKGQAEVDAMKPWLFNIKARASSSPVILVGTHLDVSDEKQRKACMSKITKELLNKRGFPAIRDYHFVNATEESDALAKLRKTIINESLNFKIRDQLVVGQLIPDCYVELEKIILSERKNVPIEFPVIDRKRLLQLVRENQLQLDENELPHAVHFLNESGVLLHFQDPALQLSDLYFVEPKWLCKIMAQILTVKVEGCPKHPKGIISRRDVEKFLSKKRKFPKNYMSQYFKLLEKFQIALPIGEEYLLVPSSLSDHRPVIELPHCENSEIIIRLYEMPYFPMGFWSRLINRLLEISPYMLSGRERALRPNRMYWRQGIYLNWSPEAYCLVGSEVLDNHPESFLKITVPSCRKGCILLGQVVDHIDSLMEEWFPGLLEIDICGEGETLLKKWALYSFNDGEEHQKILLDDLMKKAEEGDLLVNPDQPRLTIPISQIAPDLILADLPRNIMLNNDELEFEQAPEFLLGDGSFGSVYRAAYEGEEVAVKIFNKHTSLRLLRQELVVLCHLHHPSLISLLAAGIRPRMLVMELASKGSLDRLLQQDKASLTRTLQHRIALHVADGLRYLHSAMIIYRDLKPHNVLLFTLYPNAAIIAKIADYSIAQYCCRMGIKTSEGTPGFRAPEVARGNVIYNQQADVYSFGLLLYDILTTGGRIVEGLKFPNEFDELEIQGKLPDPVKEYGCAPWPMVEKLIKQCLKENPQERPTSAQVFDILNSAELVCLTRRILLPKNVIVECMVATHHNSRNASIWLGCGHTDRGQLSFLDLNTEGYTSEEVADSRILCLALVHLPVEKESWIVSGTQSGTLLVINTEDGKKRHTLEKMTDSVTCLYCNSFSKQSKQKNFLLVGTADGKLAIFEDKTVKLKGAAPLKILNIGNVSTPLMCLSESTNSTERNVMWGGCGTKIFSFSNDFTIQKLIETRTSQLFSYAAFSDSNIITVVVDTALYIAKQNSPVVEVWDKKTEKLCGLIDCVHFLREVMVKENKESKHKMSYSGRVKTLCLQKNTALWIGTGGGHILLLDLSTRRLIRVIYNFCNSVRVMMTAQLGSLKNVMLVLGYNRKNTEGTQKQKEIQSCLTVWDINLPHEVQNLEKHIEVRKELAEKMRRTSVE
T2 sequence (Q5S007 970-2527 D1994A): as the sequence (Q5S007 970-2527 G2019S) above, with D1025A, S1050G counted along it

B1: Protein kinase C, zeta (PRKCZ), arrayed (enzyme, human, UniProt Q05513 1-592, looked up)
chain: MPSRTGPKMEGSGGRVRLKAHYGGDIFITSVDAATTFEELCEEVRDMCRLHQQHPLTLKWVDSEGDPCTVSSQMELEEAFRLARQCRDEGLIIHVFPSTPEQPGLPCPGEDKSIYRRGARRWRKLYRANGHLFQAKRFNRRAYCGQCSERIWGLARQGYRCINCKLLVHKRCHGLVPLTCRKHMDSVMPSQEPPVDDKNEDADLPSEETDGIAYISSSRKHDSIKDDSEDLKPVIDGMDGIKISQGLGLQDFDLIRVIGRGSYAKVLLVRLKKNDQIYAMKVVKKELVHDDEDIDWVQTEKHVFEQASSNPFLVGLHSCFQTTSRLFLVIEYVNGGDLMFHMQRQRKLPEEHARFYAAEICIALNFLHERGIIYRDLKLDNVLLDADGHIKLTDYGMCKEGLGPGDTTSTFCGTPNYIAPEILRGEEYGFSVDWWALGVLMFEMMAGRSPFDIITDNPDMNTEDYLFQVILEKPIRIPRFLSVKASHVLKGFLNKDPKERLGCRPQTGFSDIKSHAFFRSIDWDLLEKKQALPPFQPQITDDYGLDNFDTQFTSEPVQLTPDDEDAIKRIDQSEFEGFEYINPLLLSTEESV
modifications: biotin on the biotin-carboxyl carrier protein tag
notes: protein kinase C zeta (PRKCZ), human, full length, spotted on the array; Held on streptavidin-coated glass slides by the biotinylated tag; also called PKC zeta; source: bought: Sigma Panorama Human Protein Function Array - Signal Transduction; expressed in insect cells
For the molecule B1, the binding result in experiment [1] and in experiment [2] was “binds” throughout.

B2: TNF receptor-associated factor 2, transcript variant 1 (TRAF2), arrayed (natural protein, human, UniProt Q12933 1-501, looked up)
chain: MAAASVTPPGSLELLQPGFSKTLLGTKLEAKYLCSACRNVLRRPFQAQCGHRYCSFCLASILSSGPQNCAACVHEGIYEEGISILESSSAFPDNAARREVESLPAVCPSDGCTWKGTLKEYESCHEGRCPLMLTECPACKGLVRLGEKERHLEHECPERSLSCRHCRAPCCGADVKAHHEVCPKFPLTCDGCGKKKIPREKFQDHVKTCGKCRVPCRFHAIGCLETVEGEKQQEHEVQWLREHLAMLLSSVLEAKPLLGDQSHAGSELLQRCESLEKKTATFENIVCVLNREVERVAMTAEACSRQHRLDQDKIEALSSKVQQLERSIGLKDLAMADLEQKVLEMEASTYDGVFIWKISDFARKRQEAVAGRIPAIFSPAFYTSRYGYKMCLRIYLNGDGTGRGTHLSLFFVVMKGPNDALLRWPFNQKVTLMLLDQNNREHVIDAFRPDVTSSSFQRPVNDMNIASGCPLFCPVSKMEAKNSYVRDDAIFIKAIVDLTGL
modifications: biotin on the biotin-carboxyl carrier protein tag
notes: TNF receptor-associated factor 2 (TRAF2), human, full length, spotted on the array; Held on streptavidin-coated glass slides by the biotinylated tag; also called tumor necrosis factor receptor-associated factor 2; source: bought: Sigma Panorama Human Protein Function Array - Signal Transduction; expressed in insect cells
On to B2, for which the binding result in experiment [1] is “binds”.

B3: Serine/threonine kinase 25 (STE20 homolog, yeast) (STK25), arrayed (enzyme)
chain: not shown
modifications: biotin on the biotin-carboxyl carrier protein tag
notes: serine/threonine kinase 25 (STK25), human, full length, spotted on the array; Held on streptavidin-coated glass slides by the biotinylated tag; The array was pre-incubated with 100 uM cold ATP in the substrate arrays; source: bought: Sigma Panorama Human Protein Function Array - Signal Transduction; expressed in insect cells
B3: the binding result in experiment [1] is on record as “binds”.
